Reference: patent US20190309078A1 (Hoffmann-La Roche, published 2019)

Target: human CSF-1R fragment D1-D3 (human, UniProt P07333 20-311)
Assay: SPR
Description: The binding of […] anti-CSF-1R antibodies to human CSF-1R fragment D1-D3 (SEQ ID NO:13) was measured as described in Example 10 of WO2011/070024.

B1: emactuzumab (antibody, V domains shown)
VH: QVQLVQSGAEVKKPGASVKVSCKASGYTFTSYDISWVRQAPGQGLEWMGVIWTDGGTNYAQKLQGRVTMTTDTSTSTAYMELRSLRSDDTAVYYCARDQRLYFDVWGQGTTVTVSS
VL: DIQMTQSPSSLSASVGDRVTITCRASEDVNTYVSWYQQKPGKAPKLLIYAASNRYTGVPSRFSGSGSGTDFTLTISSLQPEDFATYYCQQSFSYPTFGQGTKLEIK
notes: also called anti-CSF-1R antibody emactuzumab; <CSF-1R> MAb
binding result: no binding
